T1: Recombinant human VEGFA (Sino Biological, catalog number 11066-HNAB) (human)
T1 chain: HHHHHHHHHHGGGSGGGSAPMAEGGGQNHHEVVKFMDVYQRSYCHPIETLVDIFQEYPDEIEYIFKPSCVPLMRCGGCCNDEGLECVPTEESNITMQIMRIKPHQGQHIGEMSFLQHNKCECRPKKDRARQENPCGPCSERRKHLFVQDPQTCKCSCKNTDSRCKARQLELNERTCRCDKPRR


How the values were obtained:
[1] = target: T1, Recombinant human VEGFA (Sino …); test: cell-based or functional assay
[2] = target: Human PD-1 on the cell surface (Jurkat PD-1 effector cells, Promega); CD4 T cells in the mixed lymphocyte … (human, UniProt Q15116 25-288); test: cell-based or functional assay
[3] = target: T1, Recombinant human VEGFA (Sino …); test: BLI (Octet RED96e), told of the group
[4] = target: T2, Recombinant human PD-1 (prepared by Suzhou Junmeng Biopharm Co., Ltd. according to the sequence of NCBI … (human, UniProt Q15116 25-170, limits assumed)); test: indirect ELISA, human PD-1 coated at 0.3 µg/mL (FIG. 6a)
T2 construct: Soluble recombinant protein used in BLI and coated in ELISA; also called antigen PD-1

[5] = target: T1, Recombinant human VEGFA (Sino …); test: indirect ELISA, human VEGFA coated at 0.5 µg/mL (FIG. 7a)
[6] = target: T1, Recombinant human VEGFA (Sino …); test: indirect ELISA on coated human VEGFA, relative to Avastin control
[7] = target: T2, Recombinant human PD-1 (prepared by …); test: indirect ELISA on coated human PD-1; stability sample, 5°C, 0 week
[8] = target: T2, Recombinant human PD-1 (prepared by …); test: indirect ELISA on coated human PD-1; stability sample, 5°C, 4 week
[9] = target: T1, Recombinant human VEGFA (Sino …); test: indirect ELISA on coated human VEGF; stability sample, 5°C, 0 week
[10] = target: T1, Recombinant human VEGFA (Sino …); test: indirect ELISA on coated human VEGF; stability sample, 5°C, 2 week
[11] = target: T1, Recombinant human VEGFA (Sino …); test: indirect ELISA on coated human VEGF; stability sample, 5°C, 4 week
[12] = target: T2, Recombinant human PD-1 (prepared by …); test: BLI (Octet RED96e), antibody captured at 5 µg/mL, PD-1 at 210 and 70 nM
[13] = target: T1, Recombinant human VEGFA (Sino …); test: BLI (Octet RED96e), antibody captured at 5 µg/mL, VEGFA at 50 and 25 nM
[14] = target: T2, Recombinant human PD-1 (prepared by …); test: indirect ELISA on coated human PD-1, relative to TAB001 (JS001) control
[15] = target: T2, Recombinant human PD-1 (prepared by …); test: indirect ELISA on coated human PD-1; sample in human serum, 37°C, 0 week
[16] = target: T2, Recombinant human PD-1 (prepared by …); test: indirect ELISA on coated human PD-1; sample in human serum, 37°C, 2 week
[17] = target: T2, Recombinant human PD-1 (prepared by …); test: indirect ELISA on coated human PD-1; sample in human serum, 37°C, 4 week
[18] = target: T1, Recombinant human VEGFA (Sino …); test: indirect ELISA on coated human VEGF; sample in human serum, 37°C, 0 week
[19] = target: T1, Recombinant human VEGFA (Sino …); test: indirect ELISA on coated human VEGF; sample in human serum, 37°C, 2 week
[20] = target: T1, Recombinant human VEGFA (Sino …); test: indirect ELISA on coated human VEGF; sample in human serum, 37°C, 4 week
[21] = target: T1, Recombinant human VEGFA (Sino …); test: competitive ELISA against VEGFR2 on coated VEGFA, relative to Avastin control
[22] = target: T2, Recombinant human PD-1 (prepared by …); test: competitive ELISA, PD-1 coated, competitor Biotin-PD-L1 hFc at 4.0 µg/mL (FIG. 9a)
[23] = target: T1, Recombinant human VEGFA (Sino …); test: competitive ELISA, VEGFA coated, competitor biotinylated VEGFR2 at 0.3 µg/mL (FIG. 8a)
[24] = target: T2, Recombinant human PD-1 (prepared by …); test: competitive ELISA against PD-L1 hFc on coated PD-1, relative to TAB001 (JS001) control
[25] = target: T2, Recombinant human PD-1 (prepared by …); test: indirect ELISA, human PD-1 coated at 0.3 µg/mL (FIG. 6b)
[26] = target: T1, Recombinant human VEGFA (Sino …); test: indirect ELISA, human VEGFA coated at 0.5 µg/mL (FIG. 7b)
[27] = target: T2, Recombinant human PD-1 (prepared by …); test: competitive ELISA, PD-1 coated, competitor Biotin-PD-L1 hFc at 4.0 µg/mL (FIG. 9b)
[28] = target: T1, Recombinant human VEGFA (Sino …); test: competitive ELISA, VEGFA coated, competitor biotinylated VEGFR2 at 0.3 µg/mL (FIG. 8b)

| Binder | IC50, VEGFA-induced proliferation of HUVEC cells [1] | EC50, PD-1/PD-L1 luciferase reporter gene system (Jurkat PD-1 / CHO PD-L1) [2] | Kd [3] | EC50 [4] | Relative binding activity (%) [6] | Binding activity (%), PD-1 end [7] | Binding activity (%), PD-1 end [8] | Binding activity (%), VEGF end [9] | Binding activity (%), VEGF end [10] | Binding activity (%), VEGF end [11] | Kd [12] | koff [12] | kon [12] | Kd [13] | koff [13] | kon [13] | Relative binding activity (%) [14] | Binding activity (%), PD-1 end [15] | Binding activity (%), PD-1 end [16] | Binding activity (%), PD-1 end [17] | other results |
| --- | --- | --- | --- | --- | --- | --- | --- | --- | --- | --- | --- | --- | --- | --- | --- | --- | --- | --- | --- | --- | --- |
| Bispecific antibody molecule 23 (bispecific antibody, human IgG4 S228P, kappa, expressed in CHO-K1; also called Antibody 23; antibody 23 (IgG4)) light: DVVMTQSPLSLPVTLGQPASISCRSSQSIVHSNGNTYLEWYLQKPGQSPQLLIYKVSNRFSGVPDRFSGSGSGTDFTLKISRVEAEDVGVYYCFQGSHVPLTFGQGTKLEIKRTVAAPSVFIFPPSDEQLKSGTASVVCLLNNFYPREAKVQWKVDNALQSGNSQESVTEQDSKDSTYSLSSTLTLSKADYEKHKVYACEVTHQGLSSPVTKSFNRGEC heavy: not shown | 81.1 nM | 11.9 nM | < 0.5 nM | 6.93 nM | 175% | 105% | 97% | 99% | 104% | 81% | 1.73 nM | 7.73e-05 s⁻¹ | 44800 M⁻¹ s⁻¹ | < 0.0186 nM | < 1e-05 s⁻¹ | 538000 M⁻¹ s⁻¹ | 52% | 121% | 95% | 82% | EC50 [5]: 2.05 nM; Binding activity (%), VEGF end [18]: 98%; Binding activity (%), VEGF end [19]: 96%; Binding activity (%), VEGF end [20]: 79%; Relative binding activity (%) [21]: 97%; IC50 [22]: 293 nM; IC50 [23]: 679 nM; Relative binding activity (%) [24]: 46% |
| Bispecific antibody molecule 27 (bispecific antibody, human IgG4 S228P, kappa, Anti-PD-1 IgG4 (JS001) with the anti-VEGF VHH inserted between CH1 and the hinge of each heavy chain; also called Antibody 27; antibody 27 (IgG4)) light: DVVMTQSPLSLPVTLGQPASISCRSSQSIVHSNGNTYLEWYLQKPGQSPQLLIYKVSNRFSGVPDRFSGSGSGTDFTLKISRVEAEDVGVYYCFQGSHVPLTFGQGTKLEIKRTVAAPSVFIFPPSDEQLKSGTASVVCLLNNFYPREAKVQWKVDNALQSGNSQESVTEQDSKDSTYSLSSTLTLSKADYEKHKVYACEVTHQGLSSPVTKSFNRGEC heavy: not shown | 104 nM | 16.9 nM | < 0.5 nM |  | 53% | 95% | 107% | 97% | 92% | 104% | 0.864 nM | 5.57e-05 s⁻¹ | 64400 M⁻¹ s⁻¹ | 0.0521 nM | 4.24e-05 s⁻¹ | 815000 M⁻¹ s⁻¹ | 77% | 93% | 86% | 83% | EC50 [25]: 23.8 nM; EC50 [26]: 6.62 nM; Binding activity (%), VEGF end [18]: 101%; Binding activity (%), VEGF end [19]: 86%; Binding activity (%), VEGF end [20]: 78%; Relative binding activity (%) [21]: 85%; IC50 [27]: 297 nM; IC50 [28]: 3.56 µM; Relative binding activity (%) [24]: 86% |
| Bispecific antibody molecule 24 (bispecific antibody, human IgG4 S228P, kappa, Anti-PD-1 IgG4 (JS001) with the anti-VEGF VHH at the C-terminus of each heavy chain; also called Antibody 24; antibody 24 (IgG4)) light: DVVMTQSPLSLPVTLGQPASISCRSSQSIVHSNGNTYLEWYLQKPGQSPQLLIYKVSNRFSGVPDRFSGSGSGTDFTLKISRVEAEDVGVYYCFQGSHVPLTFGQGTKLEIKRTVAAPSVFIFPPSDEQLKSGTASVVCLLNNFYPREAKVQWKVDNALQSGNSQESVTEQDSKDSTYSLSSTLTLSKADYEKHKVYACEVTHQGLSSPVTKSFNRGEC heavy: not shown | 88 nM | 8.17 nM | < 0.5 nM | 14.6 nM | 27% | 94% | 86% | 100% | 85% | 102% | 1.21 nM | 9.38e-05 s⁻¹ | 77600 M⁻¹ s⁻¹ | 0.191 nM | 7.92e-05 s⁻¹ | 414000 M⁻¹ s⁻¹ | 25% | 106% | 63% | 89% | EC50 [5]: 13.2 nM; Binding activity (%), VEGF end [18]: 104%; Binding activity (%), VEGF end [19]: 81%; Binding activity (%), VEGF end [20]: 95%; Relative binding activity (%) [21]: 61%; IC50 [22]: 243 nM; IC50 [23]: 1080 nM; Relative binding activity (%) [24]: 55% |
| JS001 (recombinant humanized anti-PD-1 monoclonal antibody reference article, Toripalimab) (antibody, human IgG4 S228P, kappa, V domains shown, also called TAB001; anti-PD-1 monoclonal antibody JS001) VH: QGQLVQSGAEVKKPGASVKVSCKASGYTFTDYEMHWVRQAPIHGLEWIGVIESETGGTAYNQKFKGRVTITADKSTSTAYMELSSLRSEDTAVYYCAREGITTVATTYYWYFDVWGQGTTVTVSS VL: DVVMTQSPLSLPVTLGQPASISCRSSQSIVHSNGNTYLEWYLQKPGQSPQLLIYKVSNRFSGVPDRFSGSGSGTDFTLKISRVEAEDVGVYYCFQGSHVPLTFGQGTKLEIKR |  |  |  | 3.6 nM |  |  |  |  |  |  | 0.584 nM | 3.93e-05 s⁻¹ | 67300 M⁻¹ s⁻¹ |  |  |  |  |  |  |  | EC50 [25]: 18.3 nM; IC50 [22]: 135 nM; IC50 [27]: 255 nM |
